Reference: US6103888A, “Mammalian cationic proteins having lipopolysaccharide binding and anti-coagulant activity” (priority 1999, dated 2000)

Tested on: cysteine protease
Test: Cysteine protease activity of purified human CAP18
Type: biochemical

B1: human CAP18: human form of CAP18, amino acid sequence SEQ ID NO:2 (protein)
chain: MKTQRDGHSLGRWSLVLLLLGLVMPLAIIAQVLSYKEAVLRAIDGINQRSSDANLYRLLDLDPRPTMDGDPDTPKPVSFTVKETVCPRTTQQSPEDCDFKKDGLVKRCMGTVTLNQARGSFDISCDKDNKRFALLGDFFRKSKEKIGKEFKRIVQRIKDFLRNLVPRTES
cysteine protease activity (in words): significant cysteine protease activity
